Target: the molecule itself
Experiment: native MS; 50 μM protein exchanged into 200 mM ammonium acetate pH 7.4; nano electrospray, Q Exactive UHMR

B1: AtGet3dΔ1–57 from His8-SUMO-GSx2-AtGet3dΔ1–57 (native mass spectrometry sample) (natural protein, Arabidopsis thaliana, UniProt Q6DYE4 58-455, looked up)
chain: TKFVTFLGKGGSGKTTAAVFAAQHYALAGLSTCLVIHNQDPSAEFLLGSKIGTSPTLINDNLSVIRLETTKMLLEPLKQLKQADARLNMTQGVLEGVVGEELGVLPGMDSIFSMLELERLVGFFRQATRKNHKGKPFDVIIYDGISTEETLRMIGLSSKTRLYAKYLRSLAEKTDLGRLTSPSIMRFVDESMNINSNKSPFDGMTSPAMWDTLERFLETGASAWRDPERFRSFLVMDPNNPMSVKAALRYWGCTVQAGSHVSGAFAISSSHLTSQIPKADFVPLPFASASVPFTITGLDWDKILLDQANSSIRELLSETVSHGTSLTQTVMFDTAKKLVTLFMPGFEKSEIKLYQYRGGSELLIEAGDQRRVIHLPSQIQGKVGGAKFVDRSLIVTMR
notes: Get3d, Arabidopsis thaliana, UniProt Q6DYE4, without the first 57 amino acids (chloroplast transit peptide); Dialysed with Ulp1 after Ni-NTA; the GSx2 linker between SUMO and AtGet3d probably stays on the N-terminus after cleavage (surmised); Copurifies with small molecules of about 750 Da; source: E. coli NiCo21(DE3), purified (Ni-NTA, Ulp1 digestion, Superdex 200 SEC); not shown: His8, …
  stoichiometry N: 2

From PMC10248533 (The Journal of Biological Chemistry, 2023)
